In the supplement of paper PMC7125110:
± gives the standard error. Variants at the floor of the assay were thinned out.

B1: glmS ribozyme (parent)
chain: AUAAAAGCGCCAGAACUACAGAAAUGUAGUUGACGAGGAGGAGGUUUAUCGAAUUUUCGGCGGAUGCCUCCAAA

What was measured:
Conditions in all cases: with glucosamine-6-phosphate
[1] = variants of: B1; assay: self-cleavage kobs at 40 uM GlcN6P; higher = faster cleavage; RNA array
In short: (§1)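 Barcoded ribozyme variants were transcribed in situ on sequenced MiSeq chips by E. coli RNA polymerase. At 37 °C, a hybridised Cy3 probe tracked them while glucosamine-6-phosphate (40 μM to 10 mM) in HEPES/KCl/Mg(OAc)2 buffer flowed in and tiles were imaged over ~14 h. Per-tile medians of signals normalised to baseline and to non-cleaving reference variants were fit to one- or two-exponential decays, giving kobs. kcat and KM came from weighted Michaelis–Menten fits across concentrations.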

[2] = variants of: B1; assay: self-cleavage kobs at 160 uM GlcN6P; higher = faster cleavage; RNA array
In short: as §1

[3] = variants of: B1; assay: self-cleavage kobs at 640 uM GlcN6P; higher = faster cleavage; RNA array
In short: as §1

[4] = variants of: B1; assay: self-cleavage kobs at 2500 uM GlcN6P; higher = faster cleavage; RNA array
In short: as §1

[5] = variants of: B1; assay: self-cleavage kobs at 10000 uM GlcN6P; higher = faster cleavage; RNA array
In short: as §1

Variant	self-cleavage kobs at 40 uM GlcN6P [1]	self-cleavage kobs at 160 uM GlcN6P [2]	self-cleavage kobs at 640 uM GlcN6P [3]	self-cleavage kobs at 2500 uM GlcN6P [4]	self-cleavage kobs at 10000 uM GlcN6P [5]
G13C G35A	< 1e-05 s⁻¹	< 1e-05 s⁻¹	< 1e-05 s⁻¹	< 1e-05 s⁻¹	< 1e-05 s⁻¹
G13C U49C	< 1e-05 s⁻¹			< 1e-05 s⁻¹	< 1e-05 s⁻¹
A15G A64G	0.000819 ± 0.00013 s⁻¹	0.00196 ± 0.00048 s⁻¹	0.0063 ± 0.0012 s⁻¹	0.00698 ± 0.0018 s⁻¹	0.0604 ± 0.017 s⁻¹
A15U A42G G62U	< 1e-05 s⁻¹			< 1e-05 s⁻¹	< 1e-05 s⁻¹
C16A G43C	< 1e-05 s⁻¹		< 1e-05 s⁻¹		< 1e-05 s⁻¹
C16A G43A	< 1e-05 s⁻¹				
A14U A33G G38U C71A	< 1e-05 s⁻¹				
A14G C16U U45G C67U	0.00026 ± 6.6e-05 s⁻¹	0.000132 ± 3e-05 s⁻¹	0.00248 ± 0.0012 s⁻¹	0.00988 ± 0.0035 s⁻¹	
A14G A15U C67G	5.43e-05 ± 1.3e-05 s⁻¹				0.0027 ± 0.00046 s⁻¹
C16A U30A A33G U55C	< 1e-05 s⁻¹				
A15C U31C G51C U56G C70G	< 1e-05 s⁻¹				< 1e-05 s⁻¹
A14C U31A U54A	0.000186 ± 4.9e-05 s⁻¹				0.0192 ± 0.0058 s⁻¹
A15G G62U	< 1e-05 s⁻¹				< 1e-05 s⁻¹
A14C U31C A39U	2.48e-05 ± 1.1e-05 s⁻¹				0.00132 ± 0.00031 s⁻¹
G13C G38A C58U	< 1e-05 s⁻¹				
A15G G37C	< 1e-05 s⁻¹				4.76e-05 ± 6.4e-06 s⁻¹
A14G A39U G44A	0.000196 ± 4.6e-05 s⁻¹				0.00841 ± 0.0018 s⁻¹
A14C G29U G38U G44A A64U	< 1e-05 s⁻¹				< 1e-05 s⁻¹
A14G G40U C58G G60A	< 1e-05 s⁻¹			< 1e-05 s⁻¹	
A14U G60U	< 1e-05 s⁻¹	< 1e-05 s⁻¹	< 1e-05 s⁻¹	< 1e-05 s⁻¹	< 1e-05 s⁻¹
A14U A15C A33C C70G	< 1e-05 s⁻¹				
A14G C34A G44U C68U	< 1e-05 s⁻¹	< 1e-05 s⁻¹			
A14C G60C	< 1e-05 s⁻¹	< 1e-05 s⁻¹		< 1e-05 s⁻¹	< 1e-05 s⁻¹
C16A A36C G51A A53U U69G	6.48e-05 ± 2.5e-05 s⁻¹				4.91e-05 ± 1.6e-05 s⁻¹
A15C A52C C70U C71G	< 1e-05 s⁻¹				
A15C G37A U57G C67G	< 1e-05 s⁻¹				< 1e-05 s⁻¹
